These substances were tested against human IgG (human) (assay: BLI Octet, construct on Ni-NTA sensor, hIgG in solution).
“HSV2-gE_P318S_gI (from UniProt P89475 21-416; P06764 21-256) (receptor)” showed a Kd of 9900 nM, a Response (nm) of 0.124 nm and a koff of 0.00504 s⁻¹. It also gave a kon of 509 M⁻¹ s⁻¹.
With “HSV2-gE_P318T_gI (from UniProt P89475 21-416; P06764 21-256) (receptor)” the Kd was 14900 nM, the Response (nm) was 0.174 nm and the koff was 0.00711 s⁻¹. It also gave a kon of 478 M⁻¹ s⁻¹.
“HSV2-gE_P318Y_gI (from UniProt P89475 21-416; P06764 21-256) (receptor)” was tested, and the Kd was under 0.001 nM, the Response (nm) was 0.0215 nm and the koff was under 1e-07 s⁻¹. It also gave a kon of 3480 M⁻¹ s⁻¹.
“HSV2-gE_P319L_gI (from UniProt P89475 21-416; P06764 21-256) (receptor)” gave a Kd of 1390 nM, a Response (nm) of 0.328 nm and a koff of 0.00444 s⁻¹. For the same substance, the kon was 3190 M⁻¹ s⁻¹.
“HSV2-gE_R314A_gI (from UniProt P89475 21-416; P06764 21-256) (receptor)” showed a Kd of 468 nM, a Response (nm) of 0.629 nm and a koff of 0.00557 s⁻¹. For the same substance, the kon was 11900 M⁻¹ s⁻¹.
In the case of “HSV2-gE_R314D_gI (from UniProt P89475 21-416; P06764 21-256) (receptor)”, the Kd is reported as 900 nM, the Response (nm) is reported as 0.385 nm and the koff is reported as 0.00583 s⁻¹. For the same substance, the kon was 6480 M⁻¹ s⁻¹.
Substance “HSV2-gE_R314E_gI (from UniProt P89475 21-416; P06764 21-256) (receptor)” has a Kd of 1300 nM, a Response (nm) of 0.306 nm and a koff of 0.0058 s⁻¹. For the same substance, the kon was 4470 M⁻¹ s⁻¹.
With “HSV2-gE_R314F_gI (from UniProt P89475 21-416; P06764 21-256) (receptor)” the Kd was 884 nM, the Response (nm) was 0.325 nm and the koff was 0.0048 s⁻¹. It also gave a kon of 5430 M⁻¹ s⁻¹.
“HSV2-gE_R314G_gI (from UniProt P89475 21-416; P06764 21-256) (receptor)” gave a Kd of 572 nM, a Response (nm) of 0.478 nm and a koff of 0.0052 s⁻¹. The kon was 9080 M⁻¹ s⁻¹.
In the case of “HSV2-gE_R314I_gI (from UniProt P89475 21-416; P06764 21-256) (receptor)”, the Kd is reported as 658 nM, the Response (nm) is reported as 0.446 nm and the koff is reported as 0.00556 s⁻¹. The kon was 8450 M⁻¹ s⁻¹.
Work on “HSV2-gE_R314K_gI (from UniProt P89475 21-416; P06764 21-256) (receptor)” yielded a Kd of 583 nM, a Response (nm) of 0.461 nm and a koff of 0.00549 s⁻¹. For the same substance, the kon was 9420 M⁻¹ s⁻¹.
With “HSV2-gE_R314L_gI (from UniProt P89475 21-416; P06764 21-256) (receptor)” the Kd was 702 nM, the Response (nm) was 0.442 nm and the koff was 0.00521 s⁻¹. For the same substance, the kon was 7430 M⁻¹ s⁻¹.
Work on “HSV2-gE_R314M_gI (from UniProt P89475 21-416; P06764 21-256) (receptor)” yielded a Kd of 608 nM, a Response (nm) of 0.519 nm and a koff of 0.00592 s⁻¹. For the same substance, the kon was 9730 M⁻¹ s⁻¹.
With “HSV2-gE_R314N_gI (from UniProt P89475 21-416; P06764 21-256) (receptor)” the Kd was 1310 nM, the Response (nm) was 0.301 nm and the koff was 0.00748 s⁻¹. For the same substance, the kon was 5700 M⁻¹ s⁻¹.
Work on “HSV2-gE_R314P_gI (from UniProt P89475 21-416; P06764 21-256) (receptor)” yielded a Kd of 443 nM, a Response (nm) of 0.557 nm and a koff of 0.00474 s⁻¹. For the same substance, the kon was 10700 M⁻¹ s⁻¹.
For “HSV2-gE_R314Q_gI (from UniProt P89475 21-416; P06764 21-256) (receptor)”, the Kd was 498 nM, the Response (nm) was 0.568 nm and the koff was 0.00535 s⁻¹. It also gave a kon of 10800 M⁻¹ s⁻¹.
Substance “HSV2-gE_R314S_gI (from UniProt P89475 21-416; P06764 21-256) (receptor)” has a Kd of 406 nM, a Response (nm) of 0.585 nm and a koff of 0.00515 s⁻¹. For the same substance, the kon was 12700 M⁻¹ s⁻¹.
In the case of “HSV2-gE_R314T_gI (from UniProt P89475 21-416; P06764 21-256) (receptor)”, the Kd is reported as 575 nM, the Response (nm) is reported as 0.417 nm and the koff is reported as 0.0049 s⁻¹. The kon was 8530 M⁻¹ s⁻¹.
Substance “HSV2-gE_R314V_gI (from UniProt P89475 21-416; P06764 21-256) (receptor)” has a Kd of 538 nM, a Response (nm) of 0.408 nm and a koff of 0.00487 s⁻¹. It also gave a kon of 9070 M⁻¹ s⁻¹.
